Data reported in article PMC9620234, “Design, Synthesis, and Biochemical and Biological Evaluation of Novel 7-Deazapurine Cyclic Dinucleotide Analogues as STING Receptor Agonists” (Journal of Medicinal Chemistry, 2022).

Biological target: the molecule itself
Test: crystal structure; wt hSTING (140-379) co-crystallised with CDN 5f, 5k, 5l or 5m; sitting drop vapor diffusion, 18 °C; chains A/B with one ligand molecule

B1: human wild-type STING truncated to residues 140–379 (domain or fragment, UniProt Q86WV6 140-379, looked up)
chain: APAEISAVCEKGNFNVAHGLAWSYYIGYLRLILPELQARIRTYNQHYNNLLRGAVSQRLYILLPLDCGVPDNLSMADPNIRFLDKLPQQTGDHAGIKDRVYSNSIYELLENGQRAGTCVLEYATPLQTLFAMSQYSQAGFSREDRLEQAKLFCRTLEDILADAPESQNNCRLIAYQEPADDSSFSLSQEVLRHLRQEEKEEVTVGSLKTSAVPSTSTMSQEPELLISGMEKPLPLRTDFS
notes: stimulator of interferon genes (STING), human, wild-type allele, UniProt Q86WV6, residues 140-379; Each crystal also holds one cyclic dinucleotide ligand (5f, 5k, 5l or 5m) in the site between the two chains; also called wt hSTING; stimulator of interferon genes; source: E. coli BL21 (DE3), purified (Ni-NTA, Ulp1 protease digestion, SEC, HiTrap Capto S)
Q: Does B1 bind?
A: Result: binds
